This data set concerns the target U1A N-terminal RRM wild type (human, UniProt P09012 2-98). Description: SPR.

The text below walks through data of paper PMC1326249.

Sequence of U1A N-terminal RRM wild type (P09012 2-98): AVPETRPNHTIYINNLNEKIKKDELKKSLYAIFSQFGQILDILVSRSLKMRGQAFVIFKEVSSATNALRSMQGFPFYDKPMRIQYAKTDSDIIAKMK

B1: U1hpII (structured_RNA)
RNA: AGCUUAUCCAUUGCACUCCGGAUAAGCU
In turn, B1 yielded a Kd of 0.07 nM.

A word on the Kd: it is the constant that tells how readily two partners part at equilibrium.
